± gives the standard error. Fewer inactive variants are shown than the library holds.
B1: glmS ribozyme (parent)
chain: AUAAAAGCGCCAGAACUACAGAAAUGUAGUUGACGAGGAGGAGGUUUAUCGAAUUUUCGGCGGAUGCCUCCAAA

Variants of: B1
Experiment: self-cleavage kobs at 2500 uM GlcN6P; higher = faster cleavage; RNA array
Conditions: with glucosamine-6-phosphate
Method in brief: (§1)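 Tiles of sequenced MiSeq chips were imaged over ~14 h at 37 °C. On them, barcoded ribozyme variants had been transcribed in situ by E. coli RNA polymerase and were tracked via a hybridised Cy3 probe while glucosamine-6-phosphate (40 μM to 10 mM) in HEPES/KCl/Mg(OAc)2 buffer flowed in. Per-tile medians, normalised to baseline and to non-cleaving reference variants, were fit to one- or two-exponential decays for kobs, and weighted Michaelis–Menten fits gave kcat and KM.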

Going from AUAAAAGCGCCAGUACUACAGAAAUGUAGUUGCCGAGGAGGAGGUUUAUCGAAUGUUCGGCGGAUGCCUCCAAA to AUAAAAGCGCCAGGACUACAGAAAUGUAGUUGACGAGGAGGAGGUUUAUCGACUUUGCGGCGGAUGCCUCCAAA, the “self-cleavage kobs at 2500 uM GlcN6P” value rises from 7.4e-05 ± 2.1e-05 s⁻¹ to 0.000168 ± 5.2e-05 s⁻¹ (2.3-fold).

First: AUAAAAGCGCCAGGACUACAGAAAUGUAGCUGACGAGGAGGAGGUUAAUCGAAUUUUCGGCGGAUGCCUCCAAA
Second: AUAAAAGCGCCAGCACUACAGAAAUGUAGUUGACGAGGAGGAGGUCUAUAGAAUUUCCGGUGGACGCCUCCAAA
The “self-cleavage kobs at 2500 uM GlcN6P” value of the first is higher: 0.000323 ± 8.4e-05 s⁻¹ for the first, < 1e-05 s⁻¹ for the second.

AUAAAAGCGCCAGGACUACAGAAAUGUAGUUGACGAGGAGGAGGUUUAUCCAAUUUUCGGCCGAAGCGUACAAA and AUAAAAGCGCCAGCACUACAGAAAUGUAGUUGACGAGGAGGAUGUUUAUCGAAUUUUCGGAGGAUGCCUCCAAA cannot be ordered by “self-cleavage kobs at 2500 uM GlcN6P” value: < 1e-05 s⁻¹ for the first, < 1e-05 s⁻¹ for the second.

First: AUAAAAGCGCCAGUACUACAGAAAUGUAGUUGACGAGGAGGAGGUUUAUCGAAUUUUCGGCGGAAGCCCCCAAA
Second: AUAAAAGCGCCAGCACUACAGAAAUGUAGUUGACAAGGAGGAGGUUUAUCGGAUUUUCGGCGGAUGCCUCCAAA
The “self-cleavage kobs at 2500 uM GlcN6P” value of the first is higher: 0.000173 ± 4.9e-05 s⁻¹ for the first, < 1e-05 s⁻¹ for the second.

Compared with AUAAAAGCGCCAGUACUACAGAAAUGUAGUUGACGACGAGGCGGUUUAUCGAAUUUUCGGCGGAUGCCUCCAAA, AUAAAAGCGCCAGCACUACAGAAAUGUAGUAGACGAGGAGGAGGUUUAUCGAACUUACGGCGGAUGCCUCCAAA is higher in “self-cleavage kobs at 2500 uM GlcN6P” value: < 1e-05 s⁻¹ for the first, 0.000121 ± 3.3e-05 s⁻¹ for the second.

First: AUAAAAGCGCCAGUACUACAGAAAUGUAGUAGACGAGGAGGAGGUUUAUCGAAUUUUCGGCGGAUGCCACCAAA
Second: AUAAAAGCGCCAGGACUACAGAAAUGUAGUUGACGAGGAGGAGGUUUAUCGAAUUUACGGCGGAGGCCUCCAAA
The “self-cleavage kobs at 2500 uM GlcN6P” value of the first is 5.6-fold higher: 0.000236 ± 5.6e-05 s⁻¹ for the first, 4.18e-05 ± 1.4e-05 s⁻¹ for the second.

Compared with AUAAAAGCGCCAGUACUACAGAAAUGUAGUUGACGAGGACGAGGUUUAUCGAAUUUUCGGCGGGUGCCUCCAAA, AUAAAAGCGCCAGGUCUACAGAAAUGUAGUGGACGAGGAGGAUGAUUAUCGAAUUUUCGGCGGAUGCCUCCAAA is lower in “self-cleavage kobs at 2500 uM GlcN6P” value: 6.98e-05 ± 1.7e-05 s⁻¹ for the first, < 1e-05 s⁻¹ for the second.

AUAAAAGCGCCAGGACUACAGAAAUGUAGUUCACGAGGAGGAGGUUUAUCGAAUUUUAGGCGGGUGCCUCCAAA and AUAAAAGCGCCAGACUAACAGAAAUGUAGUUGACGAGGAGGAGGUUUAUCGAAUUUUCGGCGGAUGCCUGCAAA are within error of each other in “self-cleavage kobs at 2500 uM GlcN6P” value: 9.27e-05 ± 3e-05 s⁻¹ for the first, 7.4e-05 ± 1.7e-05 s⁻¹ for the second.

Compared with AUAAAAGCGCCAGCACUACAGAAAUGUAGUUGACGAGGAGGAGGUUUAUCGAAAAUUCGGCGGAUGCCUCCAAA, AUAAAAGCGCCAGUACUACAGAAAUGUAGUUGACGAGGAGGAGGUUUGUCGAAUUUUAGGCGGUUGCCUGCAAA is 37-fold lower in “self-cleavage kobs at 2500 uM GlcN6P” value: 0.00221 ± 0.00054 s⁻¹ for the first, 5.92e-05 ± 2.4e-05 s⁻¹ for the second.

Going from AUAAAAGCGCCAGGACUACAGAAAUGUAGUUGACGAGGAGGAGGUUUAUCGAGUUUUCGGCGGAUACCUCCAAA to AUAAAAGCGCCAGGACUACAGAAAUGUAGUUGACUAAGAGGAGGUUUAUCGAAUUUUCGGCGGAUGCCUCCAAA, the “self-cleavage kobs at 2500 uM GlcN6P” value falls from 0.0162 ± 0.0057 s⁻¹ to < 1e-05 s⁻¹.

Going from AUAAAAGCGCCAGCACUACAGAAAUGUAGUUGACGAGGAGGAGGUCUAUCGAAUUUUCGGCGGAUGCCUUCAAA to AUAAAAGCGCCAGGACUACAGAAAUGUAAUUGACGUGGAGGAGGUUUAUCGAAUUUUCGGCGGAUGCCUCCAAA, the “self-cleavage kobs at 2500 uM GlcN6P” value falls from 0.000279 ± 5.2e-05 s⁻¹ to < 1e-05 s⁻¹.

Compared with AUAAAAGCGCCAGUACUACAGAAAUGUAGAUGACGAGGCGGAGGUUUAUCGAAUUUUCGGCGGAUGCCUCCAAA, AUAAAAGCGCCAGUACUACAGAAAUGUAUUUCACGAGGAGGAGGUUUAUCGAAUUCUCGGCGGAUGCAUUCAAA is lower in “self-cleavage kobs at 2500 uM GlcN6P” value: 2.93e-05 ± 1.5e-05 s⁻¹ for the first, < 1e-05 s⁻¹ for the second.

AUAAAAGCGCCAGUUCUACAGAAAUGUAGUUGACGAGGAGGAGGUUUAUCGAAUUAUCCGCGCAUGCCUCCAAA and AUAAAAGCGCCAGACCUACAGAAAUGUAGUUGACGAGGUGGAGGUUUAUCGAAUUUUCCGCGGAUGCCCCCAAA cannot be ordered by “self-cleavage kobs at 2500 uM GlcN6P” value: < 1e-05 s⁻¹ for the first, < 1e-05 s⁻¹ for the second.

Going from AUAAAAGCGCCAGUACUACAGAAAUGUAGUUGACGAGGAGGAGGUUUAUGGAAUUUUCGCCGGAUGCCUCCAAA to AUAAAAGCGCCAGUAAUACAGAAAUGUAGUGUACGAGGAGGAGGUUUAUCGAAUUUUCGGCGGAUGCCUCCAAA, the “self-cleavage kobs at 2500 uM GlcN6P” value falls from 0.000405 ± 0.00014 s⁻¹ to 0.000112 ± 4.4e-05 s⁻¹ (3.6-fold).

Compared with AUAAAAGCGCCAGUACUACAGAAAUGUAGUUGACGAGGAGGAGGUCGAUCGAAUUUUCGGCGGAUGCCUCCAAA, AUAAAAGCGCCAGGACUACAGAAAUGUAGUUGACGAGGAACAGGUUUAUCGAAUUUUCGGCGGAUGCCUCCAAA is 6-fold higher in “self-cleavage kobs at 2500 uM GlcN6P” value: 8.01e-05 ± 2.2e-05 s⁻¹ for the first, 0.00048 ± 0.0001 s⁻¹ for the second.

In the case of AUAAAAGCGCCAGUACUACAGAAAUGUAGUUGACGAGGAGGAGAUUUAUAGAAUUUUCGGCGGAUGCCUCCAAA, the “self-cleavage kobs at 2500 uM GlcN6P” value is reported as < 1e-05 s⁻¹.

Variants of: B1
Experiment: self-cleavage kobs at 10000 uM GlcN6P; higher = faster cleavage; RNA array
Conditions: with glucosamine-6-phosphate
Method in brief: as §1

In order of rising “self-cleavage kobs at 10000 uM GlcN6P” value:
1. AUAAAAGCGCCAGGACUACAGAAAUGUAGUUGACGAGGAGGAGGUUUAUCGAAUUUACGGCGGAGGCCUCCAAA  6.87e-05 ± 1.5e-05 s⁻¹
2. AUAAAAGCGCCAGUAAUACAGAAAUGUAGUGUACGAGGAGGAGGUUUAUCGAAUUUUCGGCGGAUGCCUCCAAA  9.26e-05 ± 2.2e-05 s⁻¹
3. AUAAAAGCGCCAGCACUACAGAAAUGUAGUAGACGAGGAGGAGGUUUAUCGAACUUACGGCGGAUGCCUCCAAA  9.39e-05 ± 1.9e-05 s⁻¹
4. AUAAAAGCGCCAGUACUACAGAAAUGUAGUUGACGAGGAGGAGGUUUAUCGAAUUUUCGGCGGAAGCCCCCAAA  0.000191 ± 3.3e-05 s⁻¹
5. AUAAAAGCGCCAGCACUACAGAAAUGUAGUUGACGAGGAGGAGGUCUAUCGAAUUUUCGGCGGAUGCCUUCAAA  0.000482 ± 9.4e-05 s⁻¹
6. AUAAAAGCGCCAGGACUACAGAAAUGUAGCUGACGAGGAGGAGGUUAAUCGAAUUUUCGGCGGAUGCCUCCAAA  0.000556 ± 8e-05 s⁻¹

Reference: the supplement of paper PMC7125110
